Experiments:
[1] = molecular target: recombinant HLA-B*15:01 (heavy chain with human β2-microglobulin light chain) (human)
[2] = molecular target: recombinant HLA-A*01:01 (heavy chain with human β2-microglobulin light chain) (human)

| melting temperature (Tm) of the purified p/MHC complex, differential scanning fluorimetry [1] [°C] | thermal stability (Tm) of the purified p/MHC complex, differential scanning fluorimetry [2] [°C] | Binder |
| --- | --- | --- |
| 53.4 | 46.7 | AQDIYRASY [ALK R1275Q-derived nonamer neoepitope (…)] |
| 59.3 | 47.9 | AQDIYRASYY [ALK R1275Q-derived decamer neoepitope (…)] |
